To fix the notation:
B1: glmS ribozyme (parent)
chain: AUAAAAGCGCCAGAACUACAGAAAUGUAGUUGACGAGGAGGAGGUUUAUCGAAUUUUCGGCGGAUGCCUCCAAA

± gives the standard error. For some of these results: This sample holds only a part of the variants without activity. Where only a bound is given, the exact number is not on record here.

Common to all, as to details: with glucosamine-6-phosphate
Series [1] covers variants of B1. Kind of series: kcat; higher = faster cleavage; RNA array. In outline: (§1)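 Barcoded ribozyme variants on sequenced MiSeq chips were transcribed in situ by E. coli RNA polymerase and followed at 37 °C through a hybridised Cy3 probe. Glucosamine-6-phosphate at 40 μM to 10 mM in HEPES/KCl/Mg(OAc)2 buffer was flowed in, and tiles were imaged over ~14 h. Signals were normalised to baseline and to non-cleaving reference variants, and per-tile medians were fit to one- or two-exponential decays to give kobs. Weighted Michaelis–Menten fits across concentrations gave kcat and KM.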

The variants in series [2] derive from B1. Description: KM; higher = weaker cofactor use; RNA array. The essentials: as §1
In series [3] the parent is B1. Kind of series: self-cleavage kobs at 160 uM GlcN6P; higher = faster cleavage; RNA array. In outline:
as §1

Series [4] covers variants of B1. Kind of series: self-cleavage kobs at 640 uM GlcN6P; higher = faster cleavage; RNA array. The essentials:
as §1

In series [5] the parent is B1. Description: self-cleavage kobs at 2500 uM GlcN6P; higher = faster cleavage; RNA array. In outline: as §1
Variants of B1 are the subject of series [6]. Kind of series: self-cleavage kobs at 10000 uM GlcN6P; higher = faster cleavage; RNA array. The essentials: as §1
In series [7] the parent is B1. Kind of series: self-cleavage kobs at 40 uM GlcN6P; higher = faster cleavage; RNA array. The essentials: as §1

For the variant U31C U45G, the turnover number (kcat) in the series with glucosamine-6-phosphate [1] was 0.000845 ± 0.00014 s⁻¹. Also, the KM with glucosamine-6-phosphate [2] came to 1870 ± 570 µM. Moreover, in the series with glucosamine-6-phosphate [3], the “self-cleavage kobs at 160 uM GlcN6P” value was 9.65e-05 ± 1.9e-05 s⁻¹. Moreover, the “self-cleavage kobs at 640 uM GlcN6P” value with glucosamine-6-phosphate [4] turned out to be 0.000189 ± 2.7e-05 s⁻¹. Also, the “self-cleavage kobs at 2500 uM GlcN6P” value with glucosamine-6-phosphate [5] worked out at 0.000505 ± 6.4e-05 s⁻¹. Besides, in the series with glucosamine-6-phosphate [6], the “self-cleavage kobs at 10000 uM GlcN6P” value turned out to be 0.000713 ± 9.2e-05 s⁻¹.

For the variant U55G G66C, the kcat with glucosamine-6-phosphate [1] was 0.000625 ± 0.00013 s⁻¹. The “self-cleavage kobs at 640 uM GlcN6P” value in the series with glucosamine-6-phosphate [4] was 0.000216 ± 4.5e-05 s⁻¹. The “self-cleavage kobs at 2500 uM GlcN6P” value with glucosamine-6-phosphate [5] was 0.000325 ± 7e-05 s⁻¹. For the same variant, the “self-cleavage kobs at 10000 uM GlcN6P” value in the series with glucosamine-6-phosphate [6] was determined as 0.000624 ± 0.0001 s⁻¹.

For G41U U46G, the kcat with glucosamine-6-phosphate [1] turned out to be 0.00077 ± 0.00021 s⁻¹. Besides, in the series with glucosamine-6-phosphate [2], the KM was 1560 ± 690 µM. Besides, the “self-cleavage kobs at 160 uM GlcN6P” value in the series with glucosamine-6-phosphate [3] was 8.6e-05 ± 2.2e-05 s⁻¹. In addition, the “self-cleavage kobs at 640 uM GlcN6P” value in the series with glucosamine-6-phosphate [4] turned out to be 0.000197 ± 4.2e-05 s⁻¹. In the series with glucosamine-6-phosphate [5], the “self-cleavage kobs at 2500 uM GlcN6P” value was found to be 0.000433 ± 0.00011 s⁻¹. Moreover, in the series with glucosamine-6-phosphate [6], the “self-cleavage kobs at 10000 uM GlcN6P” value turned out to be 0.000804 ± 0.00021 s⁻¹.

G13C C68A: the kcat with glucosamine-6-phosphate [1] came to 1.1e-05 ± 2.3e-06 s⁻¹.

Consider G29U G32C G43U A53U, for which, in the series with glucosamine-6-phosphate [1], the kcat came to 1.74e-05 ± 3.6e-06 s⁻¹. The KM with glucosamine-6-phosphate [2] stood at 9610 ± 3900 µM. The “self-cleavage kobs at 40 uM GlcN6P” value with glucosamine-6-phosphate [7] is under 1e-05 s⁻¹.

Regarding G59C C67G, the kcat in the series with glucosamine-6-phosphate [1] was under 1e-05 s⁻¹.

In the case of A53C C67A, in the series with glucosamine-6-phosphate [1], the kcat stood at 0.000935 ± 0.0003 s⁻¹. In addition, the KM with glucosamine-6-phosphate [2] amounted to 1500 ± 750 µM. Besides, the “self-cleavage kobs at 160 uM GlcN6P” value with glucosamine-6-phosphate [3] is 7.58e-05 ± 1.6e-05 s⁻¹. The “self-cleavage kobs at 640 uM GlcN6P” value with glucosamine-6-phosphate [4] is 0.000414 ± 6.3e-05 s⁻¹. The “self-cleavage kobs at 2500 uM GlcN6P” value in the series with glucosamine-6-phosphate [5] turned out to be 0.000435 ± 0.00011 s⁻¹. For the same variant, the “self-cleavage kobs at 10000 uM GlcN6P” value with glucosamine-6-phosphate [6] came to 0.000889 ± 0.00017 s⁻¹.

Consider G37A G41U, for which the kcat in the series with glucosamine-6-phosphate [1] amounted to 0.000119 ± 2.1e-05 s⁻¹. The “self-cleavage kobs at 640 uM GlcN6P” value with glucosamine-6-phosphate [4] was determined as 4.8e-05 ± 1.3e-05 s⁻¹. Also, the “self-cleavage kobs at 2500 uM GlcN6P” value in the series with glucosamine-6-phosphate [5] is 0.000126 ± 1.7e-05 s⁻¹. Besides, the “self-cleavage kobs at 10000 uM GlcN6P” value with glucosamine-6-phosphate [6] is 0.0001 ± 1.2e-05 s⁻¹.

In the case of U31C G41C, the kcat in the series with glucosamine-6-phosphate [1] was determined as 4.88e-05 ± 2e-05 s⁻¹.

Take C10A U56A: the turnover number (kcat) with glucosamine-6-phosphate [1] is under 1e-05 s⁻¹. In the series with glucosamine-6-phosphate [6], the “self-cleavage kobs at 10000 uM GlcN6P” value was under 1e-05 s⁻¹.

Consider G38A C58G C70U, for which the turnover number (kcat) with glucosamine-6-phosphate [1] turned out to be 1.98e-05 ± 8.1e-06 s⁻¹.

With A6U U46A, in the series with glucosamine-6-phosphate [1], the turnover number (kcat) came out at 0.000115 ± 1.6e-05 s⁻¹.

Consider A48U C68U, for which the catalytic constant (kcat) with glucosamine-6-phosphate [1] stood at 7.9e-05 ± 4.9e-06 s⁻¹. In the series with glucosamine-6-phosphate [2], the Michaelis constant (KM) was 435 ± 140 µM. The “self-cleavage kobs at 640 uM GlcN6P” value with glucosamine-6-phosphate [4] is 4.57e-05 ± 6.9e-06 s⁻¹. Also, the “self-cleavage kobs at 2500 uM GlcN6P” value with glucosamine-6-phosphate [5] is 7.48e-05 ± 7.7e-06 s⁻¹. Also, the “self-cleavage kobs at 10000 uM GlcN6P” value in the series with glucosamine-6-phosphate [6] is 7.25e-05 ± 6.1e-06 s⁻¹.

Regarding G40U G66A, the kcat in the series with glucosamine-6-phosphate [1] worked out at 0.00396 ± 0.00044 s⁻¹. Further, the Michaelis-Menten constant (KM) with glucosamine-6-phosphate [2] was found to be 2220 ± 390 µM. The “self-cleavage kobs at 40 uM GlcN6P” value with glucosamine-6-phosphate [7] was found to be 8.13e-05 ± 1.2e-05 s⁻¹. The “self-cleavage kobs at 160 uM GlcN6P” value with glucosamine-6-phosphate [3] worked out at 0.000207 ± 5.2e-05 s⁻¹. Besides, the “self-cleavage kobs at 640 uM GlcN6P” value with glucosamine-6-phosphate [4] turned out to be 0.000901 ± 0.00016 s⁻¹. In addition, the “self-cleavage kobs at 2500 uM GlcN6P” value with glucosamine-6-phosphate [5] was found to be 0.00208 ± 0.0004 s⁻¹. In addition, the “self-cleavage kobs at 10000 uM GlcN6P” value in the series with glucosamine-6-phosphate [6] was determined as 0.00326 ± 0.00035 s⁻¹.

In the case of G32U U56G, the kcat with glucosamine-6-phosphate [1] was 0.00104 ± 0.00031 s⁻¹. Also, in the series with glucosamine-6-phosphate [2], the KM is 6410 ± 2800 µM. The “self-cleavage kobs at 160 uM GlcN6P” value with glucosamine-6-phosphate [3] came out at 5.05e-05 ± 1.1e-05 s⁻¹. In the series with glucosamine-6-phosphate [4], the “self-cleavage kobs at 640 uM GlcN6P” value came out at 8.33e-05 ± 1.2e-05 s⁻¹. Moreover, in the series with glucosamine-6-phosphate [5], the “self-cleavage kobs at 2500 uM GlcN6P” value came to 0.000317 ± 5e-05 s⁻¹. The “self-cleavage kobs at 10000 uM GlcN6P” value with glucosamine-6-phosphate [6] stood at 0.000633 ± 6.8e-05 s⁻¹.

Consider U47C A53C, for which the catalytic constant (kcat) in the series with glucosamine-6-phosphate [1] turned out to be 0.00196 ± 0.00041 s⁻¹. The KM with glucosamine-6-phosphate [2] is 1380 ± 440 µM. Further, the “self-cleavage kobs at 40 uM GlcN6P” value with glucosamine-6-phosphate [7] came to 6.18e-05 ± 1.1e-05 s⁻¹. Moreover, the “self-cleavage kobs at 640 uM GlcN6P” value in the series with glucosamine-6-phosphate [4] was found to be 0.000497 ± 0.00012 s⁻¹. Besides, in the series with glucosamine-6-phosphate [5], the “self-cleavage kobs at 2500 uM GlcN6P” value came to 0.00163 ± 0.00044 s⁻¹. Moreover, the “self-cleavage kobs at 10000 uM GlcN6P” value with glucosamine-6-phosphate [6] turned out to be 0.00173 ± 0.00032 s⁻¹.

On to A15U U57A, for which, in the series with glucosamine-6-phosphate [1], the kcat was determined as 4.21e-05 ± 3.2e-07 s⁻¹. Moreover, in the series with glucosamine-6-phosphate [2], the KM stood at 2340 ± 76 µM. In the series with glucosamine-6-phosphate [6], the “self-cleavage kobs at 10000 uM GlcN6P” value was determined as 3.41e-05 ± 5.8e-06 s⁻¹.

Regarding G32A U46G, in the series with glucosamine-6-phosphate [1], the kcat came out at 0.000631 ± 7.4e-05 s⁻¹. In addition, the KM in the series with glucosamine-6-phosphate [2] was determined as 3220 ± 660 µM. For the same variant, in the series with glucosamine-6-phosphate [4], the “self-cleavage kobs at 640 uM GlcN6P” value was found to be 9.72e-05 ± 1.8e-05 s⁻¹. Further, in the series with glucosamine-6-phosphate [5], the “self-cleavage kobs at 2500 uM GlcN6P” value is 0.000303 ± 5.6e-05 s⁻¹. Besides, the “self-cleavage kobs at 10000 uM GlcN6P” value with glucosamine-6-phosphate [6] came to 0.000468 ± 6.8e-05 s⁻¹.

Turning to G29U U31C, the kcat with glucosamine-6-phosphate [1] is 0.000449 ± 0.00016 s⁻¹. In addition, in the series with glucosamine-6-phosphate [3], the “self-cleavage kobs at 160 uM GlcN6P” value turned out to be 4.01e-05 ± 1.3e-05 s⁻¹. For the same variant, the “self-cleavage kobs at 640 uM GlcN6P” value in the series with glucosamine-6-phosphate [4] turned out to be 9.18e-05 ± 8.9e-06 s⁻¹. Besides, the “self-cleavage kobs at 2500 uM GlcN6P” value with glucosamine-6-phosphate [5] was 0.00015 ± 1.8e-05 s⁻¹. Besides, in the series with glucosamine-6-phosphate [6], the “self-cleavage kobs at 10000 uM GlcN6P” value was found to be 0.000407 ± 3.7e-05 s⁻¹.

Source of the values: the supplement of paper PMC7125110.
